Results: patent US12129294B2, “Methods of treatment of diseases in which IL-13 activity is detrimental using anti-IL-13 antibodies” (AbbVie Inc., priority 2016, dated 2024)
Where “and” joins values, the source holds several entries; their conditions need not be identical. Identical values can stand only once. Entries after “also recorded” stand apart in the source; their conditions may differ.

How the values were obtained:
[1] = test system: subjects with symptomatic eosinophilic esophagitis (EoE); test: Phase 2 study in EoE patients: mean esophageal eosinophil count in the 5 most inflamed HPF of esophageal biopsies; format: in vivo, human; settings: for mean esophageal eosinophil count (EEOC Mean BL): baseline; for mean change from baseline in mean esophageal eosinophil count: baseline to week 16; for mean esophageal eosinophil count (EEOC Mean post): post treatment (week 16)
From the text: (§1) Safety was monitored throughout the study. […] The study was powered for the primary endpoint.
Additionally, various safety and tolerability endpoints are also measurable.
(§2) To maximize consistency, biopsies were obtained from proximal and distal esophagus (i.e., 4 biopsy fragments from each level) at screening. Additional biopsies from mid-esophagus was encouraged and effort was made to obtain subsequent biopsies from the same levels. The biopsies were blinded and read by single central pathologist. To be eligible for trial, subjects were evaluated for peak eosinophil count of ≥15/HPF, from 2 of 3 (proximal, mid-, and/or distal) levels of the esophagus at the screening endoscopy.

[2] = test system: subjects with symptomatic eosinophilic esophagitis (EoE); test: Phase 2 study in EoE patients: peak esophageal eosinophil count; format: in vivo, human; settings: for peak esophageal eosinophil count, Mean change / peak esophageal eosinophil count, LSMD versus placebo: Change to Week 16; for peak esophageal eosinophil count, LSMD versus placebo: ANCOVA
From the text: as §2, with “North America and Switzerland. […] Safety was monitored throughout the study. […] The study was powered for the primary endpoint. […] To maximize” for “To maximize”, “screening endoscopy. Next, the effectiveness of RPC4046 (over placebo) in lowering peak esophageal eosinophil count in EoE subjects at week 16 was analyzed.” for “screening endoscopy.”

[3] = test system: subjects with symptomatic eosinophilic esophagitis (EoE); test: Phase 2 study in EoE patients: EEsAI PRO score; format: in vivo, human; design: EEsAI PRO score, Mean / EEsAI PRO score, Median: scale not given here; settings: for EEsAI PRO score, Mean change / EEsAI PRO score, LSMD versus placebo: Change to Week 16
Method: Additionally, a comparison of the mean EEsAI PRO scores at baseline and at week 16 between the placebo group and the treatment group was conducted.

[4] = test system: subjects with symptomatic eosinophilic esophagitis (EoE); test: Phase 2 study in EoE patients: subject's global assessment of disease severity; format: in vivo, human; settings: for subject's global assessment of disease severity, Mean change / subject's global assessment of disease severity, LSMD versus placebo: Change to Week 16; for subject's global assessment of disease severity, LSMD versus placebo: ANCOVA
Method: North America and Switzerland. […] Safety was monitored throughout the study. […] The study was powered for the primary endpoint. […] Still further, the effectiveness of RPC4046 (over placebo) in lowering a subject's global assessment of disease severity at week 16 was analyzed.

[5] = test system: subjects with symptomatic eosinophilic esophagitis (EoE); test: Phase 2 study in EoE patients: clinician's global assessment of disease severity; format: in vivo, human; settings: for clinician's global assessment of disease severity, Mean change / clinician's global assessment of disease severity, LSMD versus placebo: Change to Week 16; for clinician's global assessment of disease severity, LSMD versus placebo: ANCOVA
From the text: as §1

[6] = test system: subjects with symptomatic eosinophilic esophagitis (EoE); test: Phase 2 study in EoE patients: subject's global impression; format: in vivo, human; settings: therapy arm; week 16
From the text: as §1

[7] = molecular target: IL-13 sequence variant, R110Q (Homo sapiens, UniProt P35225); test: Binding of the antibody to IL-13 variant
other cytokines = test: Binding of the antibody to other cytokines
human type IL-13 = human type IL-13 (Homo sapiens, UniProt P35225, Q144R); settings: see US patent pub. No. 2014/0341913; cited from earlier work
[8] = test system: subjects with symptomatic eosinophilic esophagitis (EoE); test: Phase 2 study in EoE patients: safety, treatment-emergent adverse events (TEAE)
Method: A double-blind, placebo-controlled, dose-finding study was conducted at 40 canters in North America and Switzerland. Patients with EoE (n=100, aged 18-65) were randomized to 180 mg (low dose; LD) or 360 mg (high dose; HD) RPC4046 or PBO (1:1:1) in a Day 1 intravenous loading dose, followed by weekly subcutaneous doses for 15 weeks. […] Safety was monitored throughout the study.
Additionally, various safety and tolerability endpoints are also measurable. Safety and tolerability parameters are evaluated by the incidence, severity, and relationship of adverse events (AEs), serious AEs (SAEs), clinical laboratory abnormalities, changes in vital signs, physical examination abnormalities, and the presence of anti-drug antibodies.

[9] = 180 mg (N = 31), safety population
[10] = 360 mg (N = 34), safety population

Sequence of human type IL-13 (P35225 15-146 Q144R limits assumed): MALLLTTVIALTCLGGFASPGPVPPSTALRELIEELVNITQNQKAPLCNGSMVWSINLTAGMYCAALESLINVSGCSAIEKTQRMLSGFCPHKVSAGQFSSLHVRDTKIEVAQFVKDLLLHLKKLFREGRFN
Sequence of IL-13 sequence variant, R110Q (P35225 35-146, stated change not applied): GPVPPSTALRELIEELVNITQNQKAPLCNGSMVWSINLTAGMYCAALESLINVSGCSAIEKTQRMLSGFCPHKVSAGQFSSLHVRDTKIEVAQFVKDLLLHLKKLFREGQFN

B1: RPC4046: recombinant humanized, high-affinity, selective anti-IL-13 monoclonal antibody; heavy chain variable region SEQ ID NO: 2, light chain variable region SEQ ID NO: 3 (antibody, V domains shown)
VH: EVTLRESGPGLVKPTQTLTLTCTLYGFSLSTSDMGVDWIRQPPGKGLEWLAHIWWDDVKRYNPALKSRLTISKDTSKNQVVLKLTSVDPVDTATYYCARTVSSGYIYYAMDYWGQGTLVTVSS
VL: DIQMTQSPSSLSASVGDRVTISCRASQDIRNYLNWYQQKPGKAPKLLIFYTSKLHSGVPSRFSGSGSGTDYTLTISSLQPEDIATYYCQQGNTLPLTFGGGTKVEIK
mean esophageal eosinophil count (EEOC Mean BL) ([1]; 180 mg (LD)): 116.6 cells/hpf and 116.7 cells/hpf
mean change from baseline in mean esophageal eosinophil count ([1]; 180 mg (LD)): −94.8 cells/hpf
mean esophageal eosinophil count (EEOC Mean post) ([1]; 180 mg): 24.8 cells/hpf
mean esophageal eosinophil count (EEOC Mean BL) ([1]; 360 mg (HD)): 122.6 cells/hpf
mean change from baseline in mean esophageal eosinophil count ([1]; 360 mg (HD)): −99.9 cells/hpf
mean esophageal eosinophil count (EEOC Mean post) ([1]; 360 mg): 25.5 cells/hpf
mean esophageal eosinophil count at week 16 compared to the controls ([1]; both low dose (180 mg) and high dose (360 mg)): statistically significant reduction
peak esophageal eosinophil count, Mean ([2]; 180 mg, Baseline): 131.9 cells/hpf
peak esophageal eosinophil count, Median ([2]; 180 mg, Baseline): 113.0 cells/hpf
peak esophageal eosinophil count, Mean change ([2]; 180 mg): −106.6 cells/hpf
peak esophageal eosinophil count, LSMD versus placebo ([2]; 180 mg): −80.6 cells/hpf
peak esophageal eosinophil count, Mean ([2]; 180 mg, Week 16): 28.9 cells/hpf
peak esophageal eosinophil count, Median ([2]; 180 mg, Week 16): 15.0 cells/hpf
peak esophageal eosinophil count, Mean ([2]; 360 mg, Baseline): 139.4 cells/hpf
peak esophageal eosinophil count, Median ([2]; 360 mg, Baseline): 132.0 cells/hpf
peak esophageal eosinophil count, Mean change ([2]; 360 mg): −111.3 cells/hpf
peak esophageal eosinophil count, LSMD versus placebo ([2]; 360 mg): −79.8 cells/hpf
peak esophageal eosinophil count, Mean ([2]; 360 mg, Week 16): 31.3 cells/hpf
peak esophageal eosinophil count, Median ([2]; 360 mg, Week 16): 15.0 cells/hpf
lowering of esophageal eosinophil counts over placebo at week 16 ([2]; both low (180 mg) and high dose (360 mg)): achieved statistical significance
mean EEsAI PRO at week 16 ([3]; 180 mg and 360 mg, week 16): dose-dependent reduction
EEsAI PRO score, Mean ([3]; 180 mg, Baseline): 58.1
EEsAI PRO score, Median ([3]; 180 mg, Baseline): 61.0
EEsAI PRO score, Mean change ([3]; 180 mg): −19.8
EEsAI PRO score, LSMD versus placebo ([3]; 180 mg, ANCOVA): −4.0
EEsAI PRO score, Mean ([3]; 180 mg, Week 16): 39.3
EEsAI PRO score, Median ([3]; 180 mg, Week 16): 49.0
EEsAI PRO score, LSMD versus placebo ([3]; 180 mg, non-steroid-refractory): 4.9
EEsAI PRO score, Mean change ([3]; 180 mg, non-steroid-refractory): −20.4
EEsAI PRO score, LSMD versus placebo ([3]; 180 mg, steroid refractory): −13.5
EEsAI PRO score, Mean change ([3]; 180 mg, steroid refractory): −19.1
EEsAI PRO score, Mean ([3]; 360 mg, Baseline): 56.2
EEsAI PRO score, Median ([3]; 360 mg, Baseline): 58.0
EEsAI PRO score, Mean change ([3]; 360 mg): −23.0
EEsAI PRO score, LSMD versus placebo ([3]; 360 mg, ANCOVA): −7.2
EEsAI PRO score, Mean ([3]; 360 mg, Week 16): 33.2
EEsAI PRO score, Median ([3]; 360 mg, Week 16): 30.5
EEsAI PRO score, LSMD versus placebo ([3]; 360 mg, non-steroid-refractory): −1.2
EEsAI PRO score, Mean change ([3]; 360 mg, non-steroid-refractory): −25.2
EEsAI PRO score, LSMD versus placebo ([3]; 360 mg, steroid refractory): −15.5
EEsAI PRO score, Mean change ([3]; 360 mg, steroid refractory): −20.8
mean EEsAI PRO score in the steroid refractory sub-group ([3]; sub-group analysis, week 16): statistically significant reduction
subject's global assessment of disease severity, Mean ([4]; 180 mg, Baseline): 5.0
subject's global assessment of disease severity, Median ([4]; 180 mg, Baseline): 5.0
subject's global assessment of disease severity, Mean change ([4]; 180 mg): −2.0
subject's global assessment of disease severity, LSMD versus placebo ([4]; 180 mg): −0.9
subject's global assessment of disease severity, Mean ([4]; 180 mg, Week 16): 2.8
subject's global assessment of disease severity, Median ([4]; 180 mg, Week 16): 3.0
subject's global assessment of disease severity, Mean ([4]; 360 mg, Baseline): 5.4
subject's global assessment of disease severity, Median ([4]; 360 mg, Baseline): 5.0
subject's global assessment of disease severity, Mean change ([4]; 360 mg): −2.8
subject's global assessment of disease severity, LSMD versus placebo ([4]; 360 mg): −1.3
subject's global assessment of disease severity, Mean ([4]; 360 mg, Week 16): 2.5
subject's global assessment of disease severity, Median ([4]; 360 mg, Week 16): 2.0
subject's global assessment of disease severity at week 16 over placebo ([4]; treatment arm, 180 mg and 360 mg, week 16): dose-dependent reduction
clinician's global assessment of disease severity, Mean ([5]; 180 mg, Baseline): 6.7
clinician's global assessment of disease severity, Median ([5]; 180 mg, Baseline): 7.0
clinician's global assessment of disease severity, Mean change ([5]; 180 mg): −3.6
clinician's global assessment of disease severity, LSMD versus placebo ([5]; 180 mg): −1.7
clinician's global assessment of disease severity, Mean ([5]; 180 mg, Week 16): 2.9
clinician's global assessment of disease severity, Median ([5]; 180 mg, Week 16): 2.0
clinician's global assessment of disease severity, Mean ([5]; 360 mg, Baseline): 6.1
clinician's global assessment of disease severity, Median ([5]; 360 mg, Baseline): 6.0
clinician's global assessment of disease severity, Mean change ([5]; 360 mg): −2.9
clinician's global assessment of disease severity, LSMD versus placebo ([5]; 360 mg): −1.3
clinician's global assessment of disease severity, Mean ([5]; 360 mg, Week 16): 3.2
clinician's global assessment of disease severity, Median ([5]; 360 mg, Week 16): 3.0
clinician's global assessment of disease severity at week 16 ([5]; both the low and the high dose, week 16): achieved statistical significance
subjects responding as feeling a lot better or a little better compared to placebo [6]: larger number of subjects
binding to IL-13 sequence variant, R110Q [7]: binds
binding to other cytokines (other cytokines): does not bind to other cytokines
binding affinity to helices A and D of interleukin 13 (IL-13) (human type IL-13): binds with great affinity
Number of subjects experiencing Death related to study drug [8, 9]: 0 n
Number of subjects experiencing ≥1 TEAE [8, 9]: 20 n
Number of subjects experiencing ≥1 TEAE leading to study drug d/c [8, 9]: 1 n
Number of subjects experiencing ≥1 TEAE with fatal outcome [8, 9]: 0 n
Number of subjects experiencing ≥1 moderate or severe TEAE [8, 9]: 7 n
Number of subjects experiencing ≥1 possible, probable, or related TEAE [8, 9]: 11 n
Number of subjects experiencing ≥1 related TEAE [8, 9]: 3 n
Number of subjects experiencing ≥1 related serious TEAE [8, 9]: 0 n
Number of subjects experiencing ≥1 serious TEAE [8, 9]: 0 n
Number of subjects experiencing ≥1 severe TEAE [8, 9]: 2 n
Subjects experiencing ≥1 TEAE [8, 9]: (64.5) %
Subjects experiencing ≥1 TEAE leading to study drug d/c [8, 9]: (3.2) %
Subjects experiencing ≥1 moderate or severe TEAE [8, 9]: (22.6) %
Subjects experiencing ≥1 possible, probable, or related TEAE [8, 9]: (35.5) %
Subjects experiencing ≥1 related TEAE [8, 9]: (9.7) %
Subjects experiencing ≥1 severe TEAE [8, 9]: (6.5) %
safety and tolerability ([8]; 180 mg and 360 mg, 16-week treatment): well-tolerated with a favorable safety profile; also recorded: generally safe and well-tolerated
Number of subjects experiencing Death related to study drug [8, 10]: 0 n
Number of subjects experiencing ≥1 TEAE [8, 10]: 29 n
Number of subjects experiencing ≥1 TEAE leading to study drug d/c [8, 10]: 3 n
Number of subjects experiencing ≥1 TEAE with fatal outcome [8, 10]: 0 n
Number of subjects experiencing ≥1 moderate or severe TEAE [8, 10]: 11 n
Number of subjects experiencing ≥1 possible, probable, or related TEAE [8, 10]: 18 n
Number of subjects experiencing ≥1 related TEAE [8, 10]: 5 n
Number of subjects experiencing ≥1 related serious TEAE [8, 10]: 0 n
Number of subjects experiencing ≥1 serious TEAE [8, 10]: 1 n
Number of subjects experiencing ≥1 severe TEAE [8, 10]: 2 n
Subjects experiencing ≥1 TEAE [8, 10]: (85.3) %
Subjects experiencing ≥1 TEAE leading to study drug d/c [8, 10]: (8.8) %
Subjects experiencing ≥1 moderate or severe TEAE [8, 10]: (32.4) %
Subjects experiencing ≥1 possible, probable, or related TEAE [8, 10]: (52.9) %
Subjects experiencing ≥1 related TEAE [8, 10]: (14.7) %
Subjects experiencing ≥1 serious TEAE [8, 10]: (2.9) %
Subjects experiencing ≥1 severe TEAE [8, 10]: (5.9) %
most-frequently reported adverse events ([8]; phase 2 study): headache, URI, arthralgia, nasopharyngitis, sinusitis, abdominal pain and oropharyngeal pain
infusional hypersensitivity events ([8]; treatment groups): no reported instances of infusional hypersensitivity events
